Among the data in article PMC2172930 are increase of AR/p85 association on 0.001 nM R1881 against unstimulated cells values, retold here.

This assay addresses p85, the regulatory subunit of PI3-kinase (mouse (endogenous in NIH3T3)) (UniProt P26450). Put plainly: co-IP.
Chain of UniProt P26450 (P26450 whole entry): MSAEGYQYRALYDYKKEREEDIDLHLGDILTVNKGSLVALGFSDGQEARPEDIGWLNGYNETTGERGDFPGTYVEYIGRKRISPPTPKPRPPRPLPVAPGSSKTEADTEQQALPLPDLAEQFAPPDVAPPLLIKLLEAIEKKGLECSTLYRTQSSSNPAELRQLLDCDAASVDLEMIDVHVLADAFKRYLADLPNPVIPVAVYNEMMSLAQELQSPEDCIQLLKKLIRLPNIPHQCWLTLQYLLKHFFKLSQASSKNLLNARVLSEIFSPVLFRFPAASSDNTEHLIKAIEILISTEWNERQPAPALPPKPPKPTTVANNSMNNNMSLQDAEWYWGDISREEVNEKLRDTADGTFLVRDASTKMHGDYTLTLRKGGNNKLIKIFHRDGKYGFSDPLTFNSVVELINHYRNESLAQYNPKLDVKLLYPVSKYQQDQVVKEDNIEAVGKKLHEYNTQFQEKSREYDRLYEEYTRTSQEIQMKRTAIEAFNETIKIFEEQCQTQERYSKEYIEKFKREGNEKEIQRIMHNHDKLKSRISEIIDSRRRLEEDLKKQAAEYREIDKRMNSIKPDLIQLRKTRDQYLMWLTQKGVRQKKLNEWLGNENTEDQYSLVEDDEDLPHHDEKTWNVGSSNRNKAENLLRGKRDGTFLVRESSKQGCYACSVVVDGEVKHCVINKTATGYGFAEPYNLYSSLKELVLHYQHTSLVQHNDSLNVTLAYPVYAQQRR

In turn, “androgen receptor (110-kD classical murine AR of NIH3T3 cells) (from UniProt P19091 1-899)” yielded an increase of AR/p85 association on 0.001 nM R1881 against unstimulated cells of 38%.
